In this experiment the target is PAH2 domain of mSin3A. As to the kind of experiment: fluorescence polarisation. In general terms: Polarisation of emitted light reports the rotation of a fluorescent probe.

One may read the IC50 as the concentration at which inhibition is half-maximal.

Sequence of PAH2 domain of mSin3A (Q60520 whole entry, the tested form may be a part): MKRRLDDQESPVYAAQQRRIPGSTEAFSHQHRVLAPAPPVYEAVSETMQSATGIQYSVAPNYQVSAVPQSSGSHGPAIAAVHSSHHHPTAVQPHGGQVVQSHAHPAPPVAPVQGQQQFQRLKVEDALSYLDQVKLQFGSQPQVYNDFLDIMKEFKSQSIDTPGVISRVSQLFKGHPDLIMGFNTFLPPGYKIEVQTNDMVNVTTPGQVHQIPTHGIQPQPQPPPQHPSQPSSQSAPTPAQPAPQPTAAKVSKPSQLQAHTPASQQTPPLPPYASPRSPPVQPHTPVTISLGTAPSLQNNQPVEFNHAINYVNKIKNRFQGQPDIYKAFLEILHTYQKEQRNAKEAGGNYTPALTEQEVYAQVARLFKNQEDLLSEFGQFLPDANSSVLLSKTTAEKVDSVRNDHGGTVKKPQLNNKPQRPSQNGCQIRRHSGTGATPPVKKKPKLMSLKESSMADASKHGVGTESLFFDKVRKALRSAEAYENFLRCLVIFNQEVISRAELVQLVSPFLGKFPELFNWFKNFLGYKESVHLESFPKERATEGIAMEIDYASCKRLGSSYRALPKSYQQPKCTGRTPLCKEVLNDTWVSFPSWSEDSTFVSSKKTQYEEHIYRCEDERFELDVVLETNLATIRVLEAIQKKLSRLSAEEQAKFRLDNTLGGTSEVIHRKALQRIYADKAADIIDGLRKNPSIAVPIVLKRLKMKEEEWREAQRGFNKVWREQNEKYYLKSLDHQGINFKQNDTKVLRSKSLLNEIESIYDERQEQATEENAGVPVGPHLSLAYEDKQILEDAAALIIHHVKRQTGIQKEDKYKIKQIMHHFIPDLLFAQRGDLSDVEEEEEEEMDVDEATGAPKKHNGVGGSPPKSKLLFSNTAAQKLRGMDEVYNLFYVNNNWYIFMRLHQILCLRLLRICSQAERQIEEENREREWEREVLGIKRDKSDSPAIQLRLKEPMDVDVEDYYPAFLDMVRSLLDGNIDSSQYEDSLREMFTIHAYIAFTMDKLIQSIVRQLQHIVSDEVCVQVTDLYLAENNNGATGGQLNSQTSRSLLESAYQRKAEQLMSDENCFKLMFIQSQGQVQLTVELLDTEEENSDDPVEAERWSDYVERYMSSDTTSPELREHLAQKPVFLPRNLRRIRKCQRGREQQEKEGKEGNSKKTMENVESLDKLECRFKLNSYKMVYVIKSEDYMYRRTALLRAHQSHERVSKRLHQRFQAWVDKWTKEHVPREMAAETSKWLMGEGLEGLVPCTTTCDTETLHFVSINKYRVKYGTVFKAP

In the case of Tat-SID (MAD-SID peptide), the IC50 stood at 1.26 µM.
For PF1-SID peptide the value was 15.6 µM.

Values taken from paper PMC4741438, “Targeting the SIN3A-PF1 interaction inhibits epithelial to mesenchymal transition and maintenance of a stem cell phenotype in triple negative breast cancer” (Oncotarget, 2015).
